Measured values taken from article PMC8331139.

Legend:
[1] = target: PSII core complex of Thalassiosira pseudonana (dimeric core, C2) (Thalassiosira pseudonana (endogenous)) (UniProt A0T0N4); assay: cryo-EM structure; cryo-electron tomography of unstacked thylakoid membrane vesicles with sub-volume averaging (EMAN2); complexes in situ in the membrane; 578 PSII and 374 PSI sub-volumes; resolution 4.2 nm (PSII) and 3.3 nm (PSI); densities assigned by rigid-body fitting of structures of other species
[2] = target: FCPII-S, trimeric fucoxanthin chlorophyll a/c protein antenna of PSII (Thalassiosira pseudonana (endogenous)); assay: as above

Row | stoichiometry N [1] | stoichiometry N [2] | Substance
1 | 2 | 3 | FCPII-S, trimeric fucoxanthin chlorophyll a/c protein antenna of PSII (complex)
2 | 2 |  | PSII core complex of Thalassiosira pseudonana (dimeric core, C2) (from UniProt A0T0N4 1-38)
